Assay results reported in patent publication US20140274782A1, “AFFINITY REAGENTS AND METHODS FOR DETECTION, PURIFICATION, AND PROTEOMIC ANALYSIS OF METHYLATED PROTEINS” (The Board of Trustees of the Leland Stanford Junior …, priority 2013, published 2014).

T1: G9a and GLP (Homo sapiens, UniProt Q96KQ7+Q9H9B1)
T1 sequence (Q96KQ7 2-1210 limits assumed): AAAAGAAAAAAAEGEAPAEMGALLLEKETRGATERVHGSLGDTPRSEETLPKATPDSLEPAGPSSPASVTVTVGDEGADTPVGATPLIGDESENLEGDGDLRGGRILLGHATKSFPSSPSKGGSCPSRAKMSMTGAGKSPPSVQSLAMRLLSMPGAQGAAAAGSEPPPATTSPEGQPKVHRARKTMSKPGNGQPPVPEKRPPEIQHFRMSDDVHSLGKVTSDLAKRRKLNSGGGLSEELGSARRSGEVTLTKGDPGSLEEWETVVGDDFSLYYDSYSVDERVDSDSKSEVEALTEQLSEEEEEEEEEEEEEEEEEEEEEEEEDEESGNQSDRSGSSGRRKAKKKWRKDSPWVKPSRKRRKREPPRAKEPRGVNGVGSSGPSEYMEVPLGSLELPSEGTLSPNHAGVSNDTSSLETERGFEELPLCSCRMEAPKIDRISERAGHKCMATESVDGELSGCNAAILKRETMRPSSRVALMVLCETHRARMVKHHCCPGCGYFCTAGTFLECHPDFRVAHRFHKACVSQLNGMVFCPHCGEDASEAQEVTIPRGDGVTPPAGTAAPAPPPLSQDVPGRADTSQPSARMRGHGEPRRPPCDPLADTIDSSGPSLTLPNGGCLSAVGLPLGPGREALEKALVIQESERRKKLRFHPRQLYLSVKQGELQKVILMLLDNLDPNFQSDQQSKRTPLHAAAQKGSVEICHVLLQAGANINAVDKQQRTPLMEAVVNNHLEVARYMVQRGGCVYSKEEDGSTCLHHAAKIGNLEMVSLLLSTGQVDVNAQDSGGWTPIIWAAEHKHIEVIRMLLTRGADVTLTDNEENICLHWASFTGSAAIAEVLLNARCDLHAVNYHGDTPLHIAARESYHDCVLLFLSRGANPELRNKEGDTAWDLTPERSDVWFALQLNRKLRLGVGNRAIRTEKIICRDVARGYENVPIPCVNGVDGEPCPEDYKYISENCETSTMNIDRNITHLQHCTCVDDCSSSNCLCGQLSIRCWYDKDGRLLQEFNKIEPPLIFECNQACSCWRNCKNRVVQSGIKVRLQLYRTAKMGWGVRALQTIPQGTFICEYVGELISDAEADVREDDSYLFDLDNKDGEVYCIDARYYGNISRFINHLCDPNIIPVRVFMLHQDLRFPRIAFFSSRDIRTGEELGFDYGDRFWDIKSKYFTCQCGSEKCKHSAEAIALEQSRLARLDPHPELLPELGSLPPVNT
T1 sequence (Q9H9B1 2-1298 limits assumed): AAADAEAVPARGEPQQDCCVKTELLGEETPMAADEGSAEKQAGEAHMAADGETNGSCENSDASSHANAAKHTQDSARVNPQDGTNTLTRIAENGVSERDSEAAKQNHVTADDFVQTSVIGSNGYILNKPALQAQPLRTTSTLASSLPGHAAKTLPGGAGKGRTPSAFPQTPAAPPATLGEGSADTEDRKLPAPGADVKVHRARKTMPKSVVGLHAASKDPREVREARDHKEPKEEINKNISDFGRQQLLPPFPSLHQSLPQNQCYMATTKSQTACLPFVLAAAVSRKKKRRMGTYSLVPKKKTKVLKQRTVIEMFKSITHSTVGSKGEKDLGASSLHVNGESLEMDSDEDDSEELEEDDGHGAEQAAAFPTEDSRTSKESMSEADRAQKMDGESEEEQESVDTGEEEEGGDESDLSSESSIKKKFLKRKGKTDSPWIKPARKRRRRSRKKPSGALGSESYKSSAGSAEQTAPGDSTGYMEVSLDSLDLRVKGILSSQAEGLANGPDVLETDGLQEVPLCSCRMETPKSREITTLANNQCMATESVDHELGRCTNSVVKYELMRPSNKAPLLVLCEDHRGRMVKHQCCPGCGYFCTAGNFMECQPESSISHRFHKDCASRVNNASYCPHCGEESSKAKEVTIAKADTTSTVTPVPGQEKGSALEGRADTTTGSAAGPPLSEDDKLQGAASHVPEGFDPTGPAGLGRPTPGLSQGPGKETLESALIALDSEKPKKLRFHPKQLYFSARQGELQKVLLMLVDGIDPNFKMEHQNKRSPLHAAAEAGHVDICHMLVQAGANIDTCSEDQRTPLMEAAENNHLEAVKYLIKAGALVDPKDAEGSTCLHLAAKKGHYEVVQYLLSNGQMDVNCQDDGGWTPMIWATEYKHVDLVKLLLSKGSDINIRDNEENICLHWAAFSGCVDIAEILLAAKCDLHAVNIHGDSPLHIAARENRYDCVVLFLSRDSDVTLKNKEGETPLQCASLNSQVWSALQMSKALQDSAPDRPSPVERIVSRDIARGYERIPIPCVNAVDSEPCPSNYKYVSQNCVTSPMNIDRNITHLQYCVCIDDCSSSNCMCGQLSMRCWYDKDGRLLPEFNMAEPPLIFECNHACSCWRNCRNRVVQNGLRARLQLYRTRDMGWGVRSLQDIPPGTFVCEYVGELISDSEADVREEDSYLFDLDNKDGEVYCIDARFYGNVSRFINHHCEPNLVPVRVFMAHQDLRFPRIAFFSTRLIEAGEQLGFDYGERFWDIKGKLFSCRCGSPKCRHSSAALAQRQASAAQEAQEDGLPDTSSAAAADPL

B1: RBM3 (protein, UniProt P98179 1-157, looked up)
RNA-binding protein 3: MSSEEGKLFVGGLNFNTDEQALEDHFSSFGPISEVVVVKDRETQRSRGFGFITFTNPEHASVAMRAMNGESLDGRQIRVDHAGKSARGTRGGGFGAHGRGRSYSRGGGDQGYGSGRYYDSRPGGYGYGYGRSRDYNGRNQGGYDRYSGGNYRDNYDN
B2: CNBP (protein, UniProt P62633 2-177, looked up)
CCHC-type zinc finger nucleic …: SSNECFKCGRSGHWARECPTGGGRGRGMRSRGRGGFTSDRGFQFVSSSLPDICYRCGESGHLAKDCDLQEDACYNCGRGGHIAKDCKEPKREREQCCYNCGKPGHLARDCDHADEQKCYSCGEFGHIQKDCTKVKCYRCGETGHVAINCSKTSEVNCYRCGESGHLARECTIEATA
B3: SF3B2 (protein, UniProt Q13435 1-895, looked up)
Splicing factor 3B subunit 2: MATEHPEPPKAELQLPPPPPPGHYGAWAAQELQAKLAEIGAPIQGNREELVERLQSYTRQTGIVLNRPVLRGEDGDKAAPPPMSAQLPGIPMPPPPLGLPPLQPPPPPPPPPPGLGLGFPMAHPPNLGPPPPLRVGEPVALSEEERLKLAQQQAALLMQQEERAKQQGDHSLKEHELLEQQKRAAVLLEQERQQEIAKMGTPVPRPPQDMGQIGVRTPLGPRVAAPVGPVGPTPTVLPMGAPVPRPRGPPPPPGDENREMDDPSVGPKIPQALEKILQLKESRQEEMNSQQEEEEMETDARSSLGQSASETEEDTVSVSKKEKNRKRRNRKKKKKPQRVRGVSSESSGDREKDSTRSRGSDSPAADVEIEYVTEEPEIYEPNFIFFKRIFEAFKLTDDVKKEKEKEPEKLDKLENSAAPKKKGFEEEHKDSDDDSSDDEQEKKPEAPKLSKKKLRRMNRFTVAELKQLVARPDVVEMHDVTAQDPKLLVHLKATRNSVPVPRHWCFKRKYLQGKRGIEKPPFELPDFIKRTGIQEMREALQEKEEQKTMKSKMREKVRPKMGKIDIDYQKLHDAFFKWQTKPKLTIHGDLYYEGKEFETRLKEKKPGDLSDELRISLGMPVGPNAHKVPPPWLIAMQRYGPPPSYPNLKIPGLNSPIPESCSFGYHAGGWGKPPVDETGKPLYGDVFGTNAAEFQTKTEEEEIDRTPWGELEPSDEESSEEEEEEESDEDKPDETGFITPADSGLITPGGFSSVPAGMETPELIELRKKKIEEAMDGSETPQLFTVLPEKRTATVGGAMMGSTHIYDMSTVMSRKGPAPELQGVEVALAPEELELDPMAMTQKYEEHVREQQAQVEKEDFSDMVAEHAAKQKQKKRKAQPQDSRGGSKKYKEFKF
B4: HNRNPH2 (protein, UniProt P55795 1-449, looked up)
Heterogeneous nuclear …: MMLSTEGREGFVVKVRGLPWSCSADEVMRFFSDCKIQNGTSGIRFIYTREGRPSGEAFVELESEEEVKLALKKDRETMGHRYVEVFKSNSVEMDWVLKHTGPNSPDTANDGFVRLRGLPFGCSKEEIVQFFSGLEIVPNGMTLPVDFQGRSTGEAFVQFASQEIAEKALKKHKERIGHRYIEIFKSSRAEVRTHYDPPRKLMAMQRPGPYDRPGAGRGYNSIGRGAGFERMRRGAYGGGYGGYDDYGGYNDGYGFGSDRFGRDLNYCFSGMSDHRYGDGGSSFQSTTGHCVHMRGLPYRATENDIYNFFSPLNPMRVHIEIGPDGRVTGEADVEFATHEDAVAAMAKDKANMQHRYVELFLNSTAGTSGGAYDHSYVELFLNSTAGASGGAYGSQMMGGMGLSNQSSYGGPASQQLSGGYGGGYGGQSSMSGYDQVLQENSSDYQSNLA
B5: ZC3HAV1 (protein, UniProt Q7Z2W4 2-902, looked up)
Zinc finger CCCH-type …: ADPEVCCFITKILCAHGGRMALDALLQEIALSEPQLCEVLQVAGPDRFVVLETGGEAGITRSVVATTRARVCRRKYCQRPCDNLHLCKLNLLGRCNYSQSERNLCKYSHEVLSEENFKVLKNHELSGLNKEELAVLLLQSDPFFMPEICKSYKGEGRQQICNQQPPCSRLHICDHFTRGNCRFPNCLRSHNLMDRKVLAIMREHGLNPDVVQNIQDICNSKHMQKNPPGPRAPSSHRRNMAYRARSKSRDRFFQGSQEFLASASASAERSCTPSPDQISHRASLEDAPVDDLTRKFTYLGSQDRARPPSGSSKATDLGGTSQAGTSQRFLENGSQEDLLHGNPGSTYLASNSTSAPNWKSLTSWTNDQGARRKTVFSPTLPAARSSLGSLQTPEAVTTRKGTGLLSSDYRIINGKSGTQDIQPGPLFNNNADGVATDITSTRSLNYKSTSSGHREISSPRIQDAGPASRDVQATGRIADDADPRVALVNDSLSDVTSTTSSRVDDHDSEEICLDHLCKGCPLNGSCSKVHFHLPYRWQMLIGKTWTDFEHMETIEKGYCNPGIHLCSVGSYTINFRVMSCDSFPIRRLSTPSSVTKPANSVFTTKWIWYWKNESGTWIQYGEEKDKRKNSNVDSSYLESLYQSCPRGVVPFQAGSRNYELSFQGMIQTNIASKTQKDVIRRPTFVPQWYVQQMKRGPDHQPAKTSSVSLTATFRPQEDFCFLSSKKYKLSEIHHLHPEYVRVSEHFKASMKNFKIEKIKKIENSELLDKFTWKKSQMKEEGKLLFYATSRAYVESICSNNFDSFLHETHENKYGKGIYFAKDAIYSHKNCPYDAKNVVMFVAQVLVGKFTEGNITYTSPPPQFDSCVDTRSNPSVFVIFQKDQVYPQYVIEYTEDKACVIS

test system: 3×MBT domain of L3MBTL1; test: Triple SILAC pull-down, 3xMBT/3xMBTD355N ratio (cytoplasmic, nuclear and chromatin fractions of 293T cells); assay type: binding, human; conditions: SILAC ratio, pull-down 3xMBT vs 3xMBTD355N; experiment with UNC0638 in heavy SILAC media;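 note: proteins quantified with MaxQuant, requiring at least two unique peptides and quantification in both label directions, normalized to the mean of proteins from a digested loading control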

Q: With B1 as the molecule, how does the “3xMBT/D355N UNC Heavy” value read?
A: 3.49 log base 2

Q: B2 was tested. Which “3xMBT/D355N UNC Heavy” value did it give?
A: 1.05 log base 2

Q: How did the “3xMBT/D355N UNC Heavy” value turn out when B3 was run?
A: 3.89 log base 2

Q: B4 was tested. Which “3xMBT/D355N UNC Heavy” value did it give?
A: 1.02 log base 2

Q: How did the “3xMBT/D355N UNC Heavy” value turn out when B5 was run?
A: 2.03 log base 2

same assay, conditions: SILAC ratio, pull-down 3xMBT vs 3xMBTD355N; experiment with UNC0638 in light SILAC media

Q: With B1 as the molecule, how does the “3xMBT/D355N UNC Light” value read?
A: 3.25 log base 2

Q: With B2 as the molecule, how does the “3xMBT/D355N UNC Light” value read?
A: 1.79 log base 2

Q: Which “3xMBT/D355N UNC Light” value does the source give for B3 here?
A: 3.33 log base 2

Q: How did the “3xMBT/D355N UNC Light” value turn out when B4 was run?
A: 2.68 log base 2

Q: For B5, which “3xMBT/D355N UNC Light” value is on record?
A: 1.92 log base 2

target: T1, G9a and GLP; test: Triple SILAC pull-down after UNC0638 treatment of 293T cells, DMSO/UNC0638 ratio of protein captured by 3×MBT; assay type: cell-based; design: cells were treated for 24 hours with UNC0638 at 2.5 μM or DMSO vehicle control; endogenous in cells; host or cells: HEK 293T; conditions: SILAC ratio DMSO/UNC0638 of protein pulled down with 3xMBT; UNC0638 in heavy SILAC media;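 note: mass spectrometry (Q-Exactive) SILAC quantitation, DMSO/UNC0638 ratio computed after subtracting 3×MBTD355N mutant pull-down background, only proteins with at least twofold 3×MBT over mutant signal considered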

Q: For B1, which “Relative to UNC0638 UNC Heavy” value is on record?
A: 0.24 log base 2

Q: B2 was tested. Which “Relative to UNC0638 UNC Heavy” value did it give?
A: 0.51 log base 2

Q: Which “Relative to UNC0638 UNC Heavy” value does the source give for B3 here?
A: 0.17 log base 2

Q: B4 was tested. Which “Relative to UNC0638 UNC Heavy” value did it give?
A: 0.18 log base 2

Q: How did the “Relative to UNC0638 UNC Heavy” value turn out when B5 was run?
A: −0.16 log base 2

same assay, conditions: SILAC ratio DMSO/UNC0638 of protein pulled down with 3xMBT; UNC0638 in light SILAC media

Q: How did the “Relative to UNC0638 UNC Light” value turn out when B1 was run?
A: 0.33 log base 2

Q: How did the “Relative to UNC0638 UNC Light” value turn out when B2 was run?
A: 0.05 log base 2

Q: Which “Relative to UNC0638 UNC Light” value does the source give for B3 here?
A: 0.33 log base 2

Q: For B4, which “Relative to UNC0638 UNC Light” value is on record?
A: 0.32 log base 2

Q: For B5, which “Relative to UNC0638 UNC Light” value is on record?
A: 0.65 log base 2

same assay, conditions: average of UNC Light and UNC Heavy experiments

Q: How did the “Relative to UNC0638 Average” value turn out when B1 was run?
A: 0.29 log base 2

Q: How did the “Relative to UNC0638 Average” value turn out when B2 was run?
A: 0.28 log base 2

Q: For B3, which “Relative to UNC0638 Average” value is on record?
A: 0.25 log base 2

Q: B4 was tested. Which “Relative to UNC0638 Average” value did it give?
A: 0.25 log base 2

Q: B5 was tested. Which “Relative to UNC0638 Average” value did it give?
A: 0.25 log base 2
